Reference: patent publication EP0951295B1 (THE SCRIPPS RESEARCH INSTITUTE, dated 2010)
Each block holds one molecule with its values, some of them ahead of it.

Key:
[1] = biological target: integrin αIIbβ3, purified and immobilized on microtiter wells (UniProt P08514); experiment: solid-phase competition: peptide against 1 nM 125I-fibrinogen on immobilized αIIbβ3; mean of duplicates ± SD
[2] = biological target: integrin αvβ3 (vitronectin receptor), purified and immobilized on microtiter wells (UniProt P06756); experiment: solid-phase competition: peptide against 1 nM 125I-fibrinogen on immobilized αvβ3; mean of duplicates ± SD
[3] = biological target: integrin αIIbβ3, purified and immobilized on microtiter wells (UniProt P08514); experiment: solid-phase receptor binding assay, 125I-MMP-2 on immobilized αIIbβ3
[4] = biological target: integrin αvβ3 (vitronectin receptor), purified and immobilized on microtiter wells (UniProt P06756); experiment: solid-phase receptor binding assay, 125I-MMP-2 on immobilized αvβ3
[5] = biological target: T1, integrin αvβ3 (vitronectin receptor), purified and immobilized on microtiter wells (UniProt P06756 31-1048; P05106 27-788); experiment: solid-phase competition: peptide against vitronectin (VN) on immobilized αvβ3; individual assay
T1 construct: Purified integrin coated at 50 ng per well; also called αvβ3 receptor; vitronectin receptor (αvβ3)

[6] = biological target: T2, integrin αIIbβ3, purified and immobilized on microtiter wells (UniProt P08514 32-1039; P05106 27-788); experiment: solid-phase competition: peptide against fibrinogen (FG) on immobilized αIIbβ3; individual assay
T2 construct: Purified integrin coated at 50 ng per well; also called α11bβ3

[7] = biological target: T2, integrin αIIbβ3, purified and …; experiment: solid-phase competition: peptide against vitronectin (VN) on immobilized αIIbβ3; individual assay
[8] = biological target: T1, integrin αvβ3 (vitronectin receptor), …; experiment: solid-phase competition: peptide against fibrinogen (FG) on immobilized αvβ3; individual assay

IC50 [1]: 15000 nM
IC50 [2]: 1960 nM
Molecule: peptide 62181, cyclo(GrGDFV)

IC50 [1]: 100000 nM
IC50 [2]: 885 nM
Molecule: peptide 62185, cyclo(RADfV)

IC50 [1]: 55 nM
IC50 [2]: 395 nM
Molecule: peptide 62179, cyclo(GRGDfL)

IC50 [1]: 525 nM
IC50 [2]: 50 nM
Molecule: peptide 62184, cyclo(RGDfV)

IC50 [1]: 630 nM
IC50 [2]: 1050 nM
Molecule: peptide 62175, cyclo(ARGDfL)

IC50 [1]: 100000 nM
IC50 [2]: 57400 nM
Molecule: peptide 62186, cyclo(RaDFV)

IC50 [1]: 260 nM
IC50 [2]: 50 nM
Molecule: peptide 62187, cyclo(RGDFv)

bound cpm [3]: 10 CPM
bound cpm [4]: 300 cpm
Molecule: MMP-2 (matrix metalloproteinase-2) as used in the solid-phase receptor binding assays (enzyme)

IC50 [5]: 500 nM
IC50 [6]: 4200 nM
IC50 [7]: 980 nM
IC50 [8]: < 100 nM
B1: peptide 62880, YTAECKPQVTRGDVF (linear, VN-derived amino acid residues 35-49) (peptide)
peptide: YTAECKPQVTRGDVF
notes: Linear synthetic peptide

IC50 [5]: > 100000 nM
IC50 [7]: > 100000 nM
IC50 [8]: > 100000 nM
B2: peptide 62411, TRQVVCDLGNPM (linear, αv-derived amino acid residues 676-687) (peptide)
peptide: TRQVVCDLGNPM
notes: Linear synthetic peptide

IC50 [5]: > 100000 nM
IC50 [7]: > 100000 nM
IC50 [8]: > 100000 nM
B3: peptide 62503, GVVRNNEALARLS (linear, αv-derived amino acid residues 655-667) (peptide)
peptide: GVVRNNEALARLS
notes: Linear synthetic peptide

IC50 [5]: > 100000 nM
IC50 [6]: 90000 nM
IC50 [7]: 5000 nM
IC50 [8]: > 100000 nM
B4: peptide 62502, TDVNGDGRHDL (linear, αIIb-derived amino acid residues 296-306) (peptide)
peptide: TDVNGDGRHDL
notes: Linear synthetic peptide
